Reference: the supplement of paper PMC11246515
± gives the standard deviation of the averaged measurements.

Experiment: total protein half-life in vivo (active degradation + dilution); higher = more stable protein
[1] = E. coli NCM3722 delta-clpP delta-lon delta-hslV, growth: N-lim chemostat, doubling time 6 h
[2] = E. coli NCM3722 delta-smpB, growth: N-lim chemostat, doubling time 6 h
[3] = wild type E. coli NCM3722, growth: C-lim chemostat, doubling time 3 h
[4] = E. coli NCM3722 delta-clpP, growth: N-lim chemostat, doubling time 6 h
[5] = E. coli NCM3722 delta-hslV, growth: N-lim chemostat, doubling time 6 h
[6] = E. coli NCM3722 delta-lon, growth: N-lim chemostat, doubling time 6 h
[7] = wild type E. coli NCM3722, growth: C-lim chemostat, doubling time 6 h
[8] = wild type E. coli NCM3722, growth: C-lim chemostat, doubling time 12 h
[9] = wild type E. coli NCM3722, growth: N-lim chemostat, doubling time 6 h
[10] = wild type E. coli NCM3722, growth: P-lim chemostat, doubling time 6 h
[11] = wild type E. coli NCM3722, growth: P-lim chemostat, doubling time 12 h
[12] = wild type E. coli NCM3722, growth: N-lim chemostat, doubling time 12 h

Row | Sequence | total protein half-life in vivo [1] [h] | total protein half-life in vivo [2] [h] | total protein half-life in vivo [3] [h] | total protein half-life in vivo [4] [h] | total protein half-life in vivo [5] [h] | total protein half-life in vivo [6] [h] | total protein half-life in vivo [7] [h] | total protein half-life in vivo [8] [h] | total protein half-life in vivo [9] [h] | total protein half-life in vivo [10] [h] | total protein half-life in vivo [11] [h] | total protein half-life in vivo [12] [h]
1 | MSKRRYLTGKEVQAMMQAVCYGATGARDYCLILLAYRHGMRISELLDLHYQDLDLNEGRINIRRLKNGFSTVHPLRFDEREAVERWTQERANWKGADRTDAIFISRRGSRLSRQQAYRIIRDAGIEAGTVTQTHPHMLRHACGYELAERGADTRLIQDYLGHRNIRHTVRYTASNAARFAGLWERNNLINEKLKREEV [P0ADH7] | 4.85 ± 0.3 | 1.18 | 0.333 |  |  |  |  |  |  |  |  | 
2 | MFQLSVQDIHPGEKAGDKEEAIRQVAAALVQAGNVAEGYVNGMLAREQQTSTFLGNGIAIPHGTTDTRDQVLKTGVQVFQFPEGVTWGDGQVAYVAIGIAASSDEHLGLLRQLTHVLSDDSVAEQLKSATTAEELRALLMGEKQSEQLKLDNEMLTLDIVASDLLTLQALNAARLKEAGAVDATFVTKAINEQPLNLGQGIWLSDSAEGNLRSAIAVSRAANAFDVDGETAAMLVSVAMNDDQPIAVLKRLADLLLDNKADRLLKADAATLLALLTSDDAPTDDVLSAEFVVRNEHGLHARPGTMLVNTIKQFNSDITVTNLDGTGKPANGRSLMKVVALGVKKGHRLRFTAQGADAEQALKAIGDAIAAGLGEGA | 6.229 ± 0.029 | 5.94 ± 0.085 | 2.96 ± 0.13 | 5.64 ± 0.69 | 5.85 ± 0.086 | 6.16 ± 0.26 | 5.74 ± 0.56 | 12.3 ± 1.2 | 5.99 ± 0.57 | 5.71 ± 0.078 | 11.97 ± 0.033 | 
3 | MKRKLFWICAVAMGMSAFPSFMTQATPATQPLINAEPAVAAQTEQNPQVGQVMPGVQGADAPVVAQNGPSRDVKLTFAQIAPPPGSMVLRGINPNGSIEFGMRSDEVVTKAMLNLEYTPSPSLLPVQSQLKVYLNDELMGVLPVTKEQLGKKTLAQMPINPLFISDFNRVRLEFVGHYQDVCEKPASTTLWLDVGRSSGLDLTYQTLNVKNDLSHFPVPFFDPSDNRTNTLPMVFAGAPDVGLQQASAIVASWFGSRSGWRGQNFPVLYNQLPDRNAIVFATNDKRPDFLRDHPAVKAPVIEMINHPQNPYVKLLVVFGRDDKDLLQAAKGIAQGNILFRGESVVVNEVKPLLPRKPYDAPNWVRTDRPVTFGELKTYEEQLQSSGLEPAAINVSLNLPPDLYLMRSTGIDMDINYRYTMPPVKDSSRMDISLNNQFLQSFNLSSKQEANRLLLRIPVLQGLLDGKTDVSIPALKLGATNQLRFDFEYMNPMPGGSVDNCITFQPVQNHVVIGDDSTIDFSKYYHFIPMPDLRAFANAGFPFSRMADLSQTITVMPKAPNEAQMETLLNTVGFIGAQTGFPAINLTVTDDGSTIQGKDADIMIIGGIPDKLKDDKQIDLLVQATESWVKTPMRQTPFPGIVPDESDRAAETRSTLTSSGAMAAVIGFQSPYNDQRSVIALLADSPRGYEMLNDAVNDSGKRATMFGSVAVIRESGINSLRVGDVYYVGHLPWFERVWYALANHPILLAVLAAISVILLAWVLWRLLRIISRRRLNPDNE | 6.42 ± 0.47 | 5.904 ± 0.057 | 3.17 ± 0.033 | 7.04 ± 0.67 | 6.15 ± 0.65 | 6.28 ± 0.15 | 6.1 ± 0.11 | 10.7 ± 1.2 | 5.8 ± 0.2 | 6.3 ± 0.39 | 11.8 ± 0.31 | 11.4 ± 0.44
4 | MKKILTTPIKAEDLQDIRVGDVIYLTGTLVTCRDVCHRRLIELKRPIPYDLNGKAIFHAGPIVRKNGDKWEMVSVGPTTSMRMESFEREFIEQTGVKLVVGKGGMGPLTEEGCQKFKALHVIFPAGCAVLAATQVEEIEEVHWTELGMPESLWVCRVKEFGPLIVSIDTHGNNLIAENKKLFAERRDPIVEEICEHVHYIK [P0AC35] | 6.21 |  |  |  |  |  |  |  |  |  |  | 
5 | MLYDKSLERDNCGFGLIAHIEGEPSHKVVRTAIHALARMQHRGAILADGKTGDGCGLLLQKPDRFFRIVAQERGWRLAKNYAVGMLFLNKDPELAAAARRIVEEELQRETLSIVGWRDVPTNEGVLGEIALSSLPRIEQIFVNAPAGWRPRDMERRLFIARRRIEKRLEADKDFYVCSLSNLVNIYKGLCMPTDLPRFYLDLADLRLESAICLFHQRFSTNTVPRWPLAQPFRYLAHNGEINTITGNRQWARARTYKFQTPLIPDLHDAAPFVNETGSDSSSMDNMLELLLAGGMDIIRAMRLLVPPAWQNNPDMDPELRAFFDFNSMHMEPWDGPAGIVMSDGRFAACNLDRNGLRPARYVITKDKLITCASEVGIWDYQPDEVVEKGRVGPGELMVIDTRSGRILHSAETDDDLKSRHPYKEWMEKNVRRLVPFEDLPDEEVGSRELDDDTLASYQKQFNYSAEELDSVIRVLGENGQEAVGSMGDDTPFAVLSSQPRIIYDYFRQQFAQVTNPPIDPLREAHVMSLATSIGREMNVFCEAEGQAHRLSFKSPILLYSDFKQLTTMKEEHYRADTLDITFDVTKTTLEATVKELCDKAEKMVRSGTVLLVLSDRNIAKDRLPVPAPMAVGAIQTRLVDQSLRCDANIIVETASARDPHHFAVLLGFGATAIYPYLAYETLGRLVDTHAIAKDYRTVMLNYRNGINKGLYKIMSKMGISTIASYRCSKLFEAVGLHDDVVGLCFQGAVSRIGGASFEDFQQDLLNLSKRAWLARKPISQGGLLKYVHGGEYHAYNPDVVRTLQQAVQSGEYSDYQEYAKLVNERPATTLRDLLAITPGENAVNIADVEPASELFKRFDTAAMSIGALSPEAHEALAEAMNSIGGNSNSGEGGEDPARYGTNKVSRIKQVASGRFGVTPAYLVNADVIQIKVAQGAKPGEGGQLPGDKVTPYIAKLRYSVPGVTLISPPPHHDIYSIEDLAQLIFDLKQVNPKAMISVKLVSEPGVGTIATGVAKAYADLITIAGYDGGTGASPLSSVKYAGCPWELGLVETQQALVANGLRHKIRLQVDGGLKTGVDIIKAAILGAESFGFGTGPMVALGCKYLRICHLNNCATGVATQDDKLRKNHYHGLPFKVTNYFEFIARETRELMAQLGVTRLVDLIGRTDLLKELDGFTAKQQKLALSKLLETAEPHPGKALYCTENNPPFDNGLLNAQLLQQAKPFVDERQSKTFWFDIRNTDRSVGASLSGYIAQTHGDQGLAADPIKAYFNGTAGQSFGVWNAGGVELYLTGDANDYVGKGMAGGLIAIRPPVGSAFRSHEASIIGNTCLYGATGGRLYAAGRAGERFGVRNSGAITVVEGIGDNGCEYMTGGIVCILGKTGVNFGAGMTGGFAYVLDESGDFRKRVNPELVEVLSVDALAIHEEHLRGLITEHVQHTGSQRGEEILANWSTFATKFALVKPKSSDVKALLGHRSRSAAELRVQAQ | 6.38 ± 0.89 | 4.06 ± 0.1 | 2.72 ± 0.22 | 6.254 ± 0.044 | 4.18 ± 0.16 | 4.437 ± 0.013 | 4.89 ± 0.053 | 8.46 ± 0.56 | 3.92 ± 0.12 | 5.31 ± 0.17 | 8.43 ± 0.51 | 6.4 ± 0.52
6 | MVTINTESALTPRSLRDTRRMNMFVSVAAAVAGLLFGLDIGVIAGALPFITDHFVLTSRLQEWVVSSMMLGAAIGALFNGWLSFRLGRKYSLMAGAILFVLGSIGSAFATSVEMLIAARVVLGIAVGIASYTAPLYLSEMASENVRGKMISMYQLMVTLGIVLAFLSDTAFSYSGNWRAMLGVLALPAVLLIILVVFLPNSPRWLAEKGRHIEAEEVLRMLRDTSEKAREELNEIRESLKLKQGGWALFKINRNVRRAVFLGMLLQAMQQFTGMNIIMYYAPRIFKMAGFTTTEQQMIATLVVGLTFMFATFIAVFTVDKAGRKPALKIGFSVMALGTLVLGYCLMQFDNGTASSGLSWLSVGMTMMCIAGYAMSAAPVVWILCSEIQPLKCRDFGITCSTTTNWVSNMIIGATFLTLLDSIGAAGTFWLYTALNIAFVGITFWLIPETKNVTLEHIERKLMAGEKLRNIGV [P0AE24] |  |  |  |  |  |  |  |  |  |  |  | 9.72
7 | MDSFPAIEIDKVKAWDFRLANINTSECLNVAYGVDANYLDGVGVSITSIVLNNRHINLDFYIIADVYNDGFFQKIAKLAEQNQLRITLYRINTDKLQCLPCTQVWSRAMYFRLFAFQLLGLTLDRLLYLDADVVCKGDISQLLHLGLNGAVAAVVKDVEPMQEKAVSRLSDPELLGQYFNSGVVYLDLKKWADAKLTEKALSILMSKDNVYKYPDQDVMNVLLKGMTLFLPREYNTIYTIKSELKDKTHQNYKKLITESTLLIHYTGATKPWHKWAIYPSVKYYKIALENSPWKDDSPRDAKSIIEFKKRYKHLLVQHHYISGIIAGVCYLCRKYYRK | 5.91 ± 0.13 | 5.17 ± 0.11 | 2.93 ± 0.14 | 5.65 ± 0.22 | 5.85 ± 1.1 | 4.71 ± 0.095 | 5.19 ± 0.48 | 9.31 ± 1.8 | 6.04 ± 1.2 | 5.29 ± 0.38 | 9.86 ± 0.11 | 10.3 ± 2.3
